Experimental data taken from article PMC10310011, “Accelerated absorption of regular insulin administered via a vascularizing permeable microchamber implanted subcutaneously in diabetic Rattus norvegicus” (PLOS ONE, 2023).

Settings: rat, in vivo
Text: Male athymic nude R. norvegicus between 9–12 weeks of age and weighing 250–350 g were purchased from Envigo (Livermore, CA, USA). Because estrogen interferes with streptozotocin [44] (see next), only male animals were included. Athymic nude rats were chosen to abrogate a possible antibody response against the human insulin to be injected. Animals were housed for a seven-day acclimatization period before initiating any experimental procedures. To avoid endogenous insulin in subject rats from cross-reacting in the human insulin assays, animals were rendered diabetic by a single intraperitoneal injection, 60 mg/kg, of streptozotocin (Sigma-Aldrich, St. Louis, MO, USA). Blood glucose concentrations were monitored daily using a Freestyle Lite Glucose Monitoring System (Abbott Diabetes Care Inc., Alameda, CA, USA). Rats were considered diabetic when blood glucose concentrations greater than 200 mg/dl were recorded on three consecutive days. Rats verified as diabetic were maintained with exogenous long-acting insulin (Lantus, Sanofi-Aventis, Bridgewater, NJ, USA) throughout the study; maintenance insulin treatment also serves to forestall insulin resistance. Maintenance insulin therapy was suspended for 24 hours prior to each insulin kinetics study. Two days after the initial insulin-kinetics assay two empty, 1.5 cm^2 per side, single-chamber (having a nominal internal volume of 22.5 μl), implantable vascularizing microchambers, IVMs (Procyon Technologies LLC, Tucson, AZ, USA) (Fig 1A) were implanted subcutaneously on the dorsal aspect of each rat. The initial insulin kinetics assays were performed 7 days after STZ induction of diabetes. […] Plasma samples collected from each insulin kinetics assay were analyzed for human insulin concentration using a commercial human insulin ELISA kit (Alpco, Salem, NH, USA). […] The measured insulin concentrations were converted from IU/ml to μg/ml according to the manufacturer’s recommended conversion ratios of 1 IU of human insulin = 6nmol = 34.8 μg of insulin. […] The mean and standard deviation (SD) for each category were then calculated. […]

Substance: insulin human
- Plasma insulin curves after SC injection, diluted versus stock concentration: did not vary significantly
- 95% CI of Tmax (sc): 13.18 to 32.27 min
- Tmax (mean peak time of plasma insulin) (sc): 22.7 min
